We go through five molecules from PMC12618267, “GAGA zinc finger transcription factor searches chromatin by 1D–3D facilitated diffusion”.

Data set [1] deals with T1, HA-GAF-FL (Drosophila melanogaster), Q08605-2.
T1 sequence: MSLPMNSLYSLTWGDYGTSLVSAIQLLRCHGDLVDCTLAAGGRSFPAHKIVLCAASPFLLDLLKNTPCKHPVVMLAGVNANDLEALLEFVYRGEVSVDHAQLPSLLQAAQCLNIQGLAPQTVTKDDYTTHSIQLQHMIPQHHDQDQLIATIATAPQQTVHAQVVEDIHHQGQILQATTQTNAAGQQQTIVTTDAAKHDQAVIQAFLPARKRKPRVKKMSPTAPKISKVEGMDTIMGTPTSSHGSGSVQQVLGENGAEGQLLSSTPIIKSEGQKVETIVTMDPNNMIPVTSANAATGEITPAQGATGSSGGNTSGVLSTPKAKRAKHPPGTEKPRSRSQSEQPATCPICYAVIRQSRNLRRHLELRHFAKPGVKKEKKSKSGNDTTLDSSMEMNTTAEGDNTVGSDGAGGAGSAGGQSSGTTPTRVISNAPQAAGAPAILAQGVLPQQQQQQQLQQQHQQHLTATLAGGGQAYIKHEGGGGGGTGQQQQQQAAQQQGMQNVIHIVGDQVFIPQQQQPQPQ
Nature of the data set: EMSA. Conditions: ~15 nM protein, 3 nM NCP; 12.5 mM HEPES-KOH pH 7.6, 0.05 mM EDTA, 6.25 mM MgCl2, 5% glycerol, 50 mM NaCl, 50 ug/ml BSA, 0.05% NP-40; EMSA at room temperature; smFRET adds dextrose ….

The test system of data set [2] is T2, Cy3-GAF-DBD / GAF-DBD (Drosophila melanogaster), Q08605-2.
T2 sequence: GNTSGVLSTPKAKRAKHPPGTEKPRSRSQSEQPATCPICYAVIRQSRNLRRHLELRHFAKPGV
The data set is described as follows: EMSA. The note with it: 3 nM DNA; 12.5 mM HEPES-KOH pH 7.6, 0.05 mM EDTA, 6.25 mM MgCl2, 5% glycerol, 50 mM NaCl, 50 ug/ml BSA, 0.05% NP-40; EMSA at room temperature; smFRET adds dextrose ….

Data set [3] deals with SNAP-tagged full-length GAGA factor (MBP–SNAP–GAF–6×His) (Drosophila melanogaster). Nature of the data set: mass photometry; Refeyn TwoMP; proteins free in solution; optical tweezers imaging buffer without NP-40; 10-min incubation before measuring; at concentrations similar to those of the optical tweezers experiments (80 nM GAF-FL, 25 nM GAF-ΔPOZ).
In data set [4] the test system is T2, Cy3-GAF-DBD / GAF-DBD (Drosophila melanogaster), Q08605-2. Nature of the data set: smFRET. The note with it: from koff/kon; dwell 3.1 s; 6.25 mM Mg2+; 12.5 mM HEPES-KOH pH 7.6, 0.05 mM EDTA, 6.25 mM MgCl2, 5% glycerol, 50 mM NaCl, 50 ug/ml BSA, 0.05% NP-40; EMSA at room temperature; smFRET adds dextrose …. In general terms: A gel shift assay detects complexes by their altered migration in electrophoresis.

In data set [5] the target is T3, HA-GAF-FL (Drosophila melanogaster, UniProt Q08605-2 1-519).
T3 sequence: T1 sequence
Nature of the data set: EMSA; 3 nM DNA; 12.5 mM HEPES-KOH pH 7.6, 0.05 mM EDTA, 6.25 mM MgCl2, 5% glycerol, 50 mM NaCl, 50 ug/ml BSA, 0.05% NP-40; EMSA at room temperature; smFRET adds dextrose, Trolox, glucose oxidase, catalase. Conditions: protein: recombinant; tags: N-terminal HA; chain copies: 6; label: Cy5 at end.

In the case of “GTGTCATTTGTTTGGCAGAAAGAAAACTCGAGAAATTTCTCTGGCCGTTATTCTCTATTCGTTTTGTGACTCTCCCTCTCTGTACTATTGCTCTCTCACTCTGTCGCACAGTAAACGGCACACTGTTCTCGTTGCTTCGAGAGAGCGCGCCTCGAA (double strand) [hsp70 NCP (3-N-6 nucleosome)]”, the binding signal (fold less bound than free DNA) in data set [1] was 2. In data set [2], “GTGTCATTTGTTTGGCAGAAAGAAAACTCGAGAAATTTCTCTGGCCGTTATTCTCTATTCGTTTTGTGACTCTCCCTCTCTGTACTATTGCTCTCTCACTCTGTCGCACAGTAAACGGCACACTGTTCTCGTTGCTTCGAGAGAGCGCGCCTCGAA (double strand) [hsp70 NCP DNA (free, 3-N-6)]” came in with a K half of 12 nM.

As for “SNAP-tagged full-length GAGA factor (MBP–SNAP–GAF–6×His) (natural protein)”, in data set [3], the stoichiometry N turned out to be 8. Take “GTTTTGTGAGTACGCGCTGTTGTACTATTGTTAACCCACAAGGTCGCACAGTAAACGGCACACTGTACGTGTTGCTTCGAGAGAGCGCGC (double strand) [Cy5-cognate DNA 90 bp]”: the Kd in data set [4] came out at 11.5 nM. That is a double-digit nanomolar value.

B1: hsp70 NCP DNA (free, 3-N-6) (dsDNA)
DNA 1: GTGTCATTTGTTTGGCAGAAAGAAAACTCGAGAAATTTCTCTGGCCGTTATTCTCTATTCGTTTTGTGACTCTCCCTCTCTGTACTATTGCTCTCTCACTCTGTCGCACAGTAAACGGCACACTGTTCTCGTTGCTTCGAGAGAGCGCGCCTCGAA
DNA 2: TTCGAGGCGCGCTCTCTCGAAGCAACGAGAACAGTGTGCCGTTTACTGTGCGACAGAGTGAGAGAGCAATAGTACAGAGAGGGAGAGTCACAAAACGAATAGAGAATAACGGCCAGAGAAATTTCTCGAGTTTTCTTTCTGCCAAACAAATGACAC
On to B1, for which, in data set [5], the binding result is recorded as “binds”.

Usually stoichiometry N stands for the number of molecules, sites or subunits per partner or assembly. For orientation: Kd means the concentration at which binding is half-saturated. Read a low Kd as higher affinity.
